Laboratory results reported in the Immune Epitope Database (IEDB).

Experiments:
HLA-B*40:01 = assay: IEDB peptide-MHC binding, purified MHC/competitive/radioactivity; filed as Kd, often an IC50 or EC50 that approximates it; ≥ and ≤ were set here for values at or beyond the usual limits of such assays
HLA-A*30:01 = assay: as above
HLA-B*15:01 [1] = assay: IEDB peptide-MHC binding, purified MHC/competitive/fluorescence; filed as Kd, often an IC50 or EC50 that approximates it; ≥ and ≤ were set here for values at or beyond the usual limits of such assays
HLA-A*23:01 = assay: IEDB peptide-MHC binding, purified MHC/competitive/radioactivity; filed as Kd, often an IC50 or EC50 that approximates it; ≥ and ≤ were set here for values at or beyond the usual limits of such assays
HLA-A*24:02 = assay: as above
HLA-B*15:01 [2] = assay: as above
HLA-B*44:02 = assay: as above
HLA-A*33:01 = assay: as above; settings: source organism: SARS coronavirus Tor2
HLA-A*68:01 = assay: as above
HLA-A*31:01 = assay: IEDB peptide-MHC binding, purified MHC/direct/fluorescence; filed as Kd, often an IC50 or EC50 that approximates it; ≥ and ≤ were set here for values at or beyond the usual limits of such assays; settings: source organism: SARS-CoV1
HLA-B*44:03 = assay: IEDB peptide-MHC binding, purified MHC/competitive/radioactivity; filed as Kd, often an IC50 or EC50 that approximates it; ≥ and ≤ were set here for values at or beyond the usual limits of such assays
HLA-B*57:01 = assay: IEDB peptide-MHC binding, purified MHC/direct/fluorescence; filed as Kd, often an IC50 or EC50 that approximates it; ≥ and ≤ were set here for values at or beyond the usual limits of such assays; settings: source organism: Yellow fever virus
HLA-A*01:01 = assay: IEDB peptide-MHC binding, purified MHC/competitive/radioactivity; filed as Kd, often an IC50 or EC50 that approximates it; ≥ and ≤ were set here for values at or beyond the usual limits of such assays
HLA-A*30:02 = assay: as above
HLA-A*26:01 = assay: as above
HLA-B*27:05 = assay: IEDB peptide-MHC binding, purified MHC/direct/fluorescence; filed as Kd, often an IC50 or EC50 that approximates it; ≥ and ≤ were set here for values at or beyond the usual limits of such assays; settings: source organism: Mycobacterium tuberculosis
HLA-B*46:01 = assay: as above; settings: source organism: West Nile virus
HLA-A*11:01 [3] = assay: as above; settings: source organism: Homo sapiens
HLA-A*11:01 [4] = assay: IEDB peptide-MHC binding, purified MHC/competitive/radioactivity; filed as Kd, often an IC50 or EC50 that approximates it; ≥ and ≤ were set here for values at or beyond the usual limits of such assays; settings: source organism: Dengue virus 2 Jamaica/1409/1983
HLA-A*03:01 = assay: as above; settings: source organism: Dengue virus 2 Jamaica/1409/1983
HLA-B*53:01 = assay: as above; settings: source organism: Dengue virus 4 Philippines/H241/1956
HLA-A*02:01 = assay: IEDB peptide-MHC binding, purified MHC/competitive/fluorescence; filed as Kd, often an IC50 or EC50 that approximates it; ≥ and ≤ were set here for values at or beyond the usual limits of such assays; settings: source organism: Vaccinia virus
[5] = source organism: Dengue virus 2 Jamaica/1409/1983
[6] = source organism: Dengue virus 3 Martinique/1243/1999
[7] = source organism: Vaccinia virus WR
[8] = source organism: Dengue virus 4 Philippines/H241/1956
[9] = source organism: Dengue virus 1 Brazil/97-11/1997
[10] = source organism: Dengue virus 2 Thailand/NGS-C/1944

AEHTGREIV
Kd (HLA-B*40:01; [5]): 0.0624 µM

WENNIKLTV
Kd (HLA-B*40:01; [6]): 0.12 µM

RLSNGMPTV
Kd (HLA-A*30:01; [7]): 9.27 µM

FLCDDTITY
Kd (HLA-B*15:01 [1]; source organism: West Nile virus): 0.298 µM

IWYMWLGARF
Kd (HLA-A*23:01; [5]): 0.00827 µM | Kd (HLA-A*24:02; [5]): 0.00614 µM

LDPIPYDPKF
Kd (HLA-A*24:02; [5]): 2.42 µM

RMAILGETAW
Kd (HLA-B*15:01 [2]; [8]): 0.253 µM | Kd (HLA-B*44:02; [8]): 1.62 µM

KVIQPRVEK
Kd (HLA-A*33:01): 7.34 µM | Kd (HLA-A*68:01; source organism: SARS coronavirus Tor2): 0.89 µM | Kd (HLA-A*31:01): 0.427 µM

KVVRLTPQV
Kd (HLA-A*30:01; [7]): 0.178 µM

IESSKNQTW
Kd (HLA-B*44:03; [8]): 0.158 µM | Kd (HLA-B*44:02; [8]): 0.135 µM

VEETNMITLL
Kd (HLA-B*40:01; source organism: Dengue virus 4 Dominica/814669/1981): 0.025 µM

EFFLMVLLI
Kd (HLA-A*24:02; [9]): ≥ 40.1 µM

RDKRSVALA
Kd (HLA-A*30:01; [9]): 1.99 µM

SEIPNLDII
Kd (HLA-B*44:03; [5]): 0.0604 µM | Kd (HLA-B*40:01; [5]): 0.112 µM

MENLLWKQI
Kd (HLA-B*44:03; [6]): 0.0934 µM | Kd (HLA-B*44:02; [6]): 0.00679 µM

STLRTLKPY
Kd (HLA-B*15:01 [1]; source organism: Bacillus cereus G9241): 0.148 µM

EIKTGISSF
Kd (HLA-B*15:01 [2]; [7]): 0.0899 µM

KIMKVVNRW
Kd (HLA-B*57:01): 0.131 µM

HTSEHGGRAY
Kd (HLA-B*15:01 [2]; [6]): 0.146 µM | Kd (HLA-A*01:01; [6]): 1.03 µM | Kd (HLA-A*30:02; [6]): ≥ 44.1 µM | Kd (HLA-A*26:01; [6]): 0.163 µM

KYKQSNTNK
Kd (HLA-A*30:01; [7]): 0.103 µM

VSYSTFCLG
Kd (HLA-B*15:01 [2]; [7]): 0.71 µM

LAIPATEFF
Kd (HLA-B*15:01 [2]; [7]): 0.00416 µM

TVFIRFPHY
Kd (HLA-B*15:01 [2]; [7]): 0.123 µM | Kd (HLA-A*30:01; [7]): 1.27 µM

RASGSYISG
Kd (HLA-A*30:01; [7]): 0.589 µM

EAEPPFGDSY
Kd (HLA-A*01:01; [5]): 1.77 µM | Kd (HLA-A*26:01; [5]): 1.3 µM

LLLMRTTWAF
Kd (HLA-B*15:01 [2]; [8]): 0.00124 µM | Kd (HLA-A*23:01; [8]): 0.694 µM | Kd (HLA-A*24:02; [8]): 0.292 µM

SYAQMWSLMY
Kd (HLA-A*30:02; source organism: Dengue virus 2 Peru/IQT2913/1996): ≥ 69.7 µM

KTKRYLPAI
Kd (HLA-A*30:01; [5]): 0.1 µM

FRWDYIPPT
Kd (HLA-B*27:05): 0.333 µM

LMNDPGAPW
Kd (HLA-B*46:01): 8.98 µM

NVRYVFLYK
Kd (HLA-A*30:01; [7]): 0.00989 µM

LVRSTVSSI
Kd (HLA-B*15:01 [2]; source organism: Vaccinia virus Copenhagen): 0.527 µM

STEIGLLVG
Kd (HLA-A*11:01 [3]): 12.4 µM

VEGLSGATW
Kd (HLA-B*44:03; [9]): 0.0891 µM | Kd (HLA-B*44:02; [9]): 0.03 µM

NEMVLLQMEN
Kd (HLA-B*44:03; [10]): 1.44 µM | Kd (HLA-B*44:02; [10]): 0.512 µM

LSKNTFYLF
Kd (HLA-B*15:01 [2]; [7]): 0.0142 µM

RTHFSQPSG
Kd (HLA-A*30:01; [7]): 0.0146 µM

SEMIIPKNF
Kd (HLA-B*44:03; [5]): 0.0129 µM | Kd (HLA-B*44:02; [5]): 0.0107 µM

RKKARSTPFN
Kd (HLA-A*30:01; [5]): 3.82 µM

GTIMVSEHF
Kd (HLA-B*15:01 [2]; [7]): 0.0574 µM

VTFKNPHAK
Kd (HLA-A*11:01 [4]): 0.137 µM | Kd (HLA-A*68:01; [5]): 0.133 µM | Kd (HLA-A*03:01): 0.00959 µM | Kd (HLA-A*30:01; [5]): 0.278 µM

MTSRMLLNRF
Kd (HLA-A*01:01; [9]): 12.3 µM | Kd (HLA-A*26:01; [9]): 2.18 µM

GELCEDTMTY
Kd (HLA-B*44:03; [9]): 0.025 µM

LAPFNFLVF
Kd (HLA-B*15:01 [2]; [7]): 0.135 µM

NPAQEDDQY
Kd (HLA-B*53:01): 0.746 µM

RVSVSAILL
Kd (HLA-A*30:01; [7]): 0.0147 µM

IESALNDTW
Kd (HLA-B*44:03; [5]): 0.0679 µM | Kd (HLA-B*44:02; [5]): 0.127 µM

KLIIHNPEL
Kd (HLA-A*02:01): 0.002 µM
